Source: the nanobody polyreactivity screen of Harvey et al. (2022)

Assay: yeast display, Sf9 membrane polyspecificity reagent, FACS + sequencing; frameworks hold sequencing errors
Method in brief: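 In a synthetic yeast display library (Saccharomyces cerevisiae BJ5465), nanobody expression was induced with galactose for 36–48 hours. FACS gates were set low and high (top ~1%) using anti-HA fluorescence for expression and streptavidin fluorescence for binding of the Sf9 membrane reagent. Each polyreactivity label is drawn from the gate of origin.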

Row | Sequence | polyreactivity (PSR sort gate)
1 | QVQLLESGGGLVQAGGSLRLSCAASGSTFWPNAMGWYRQAPGKERELVAAITGGGGTNYADSVKGRFTISRDNAKNTVYLQMNSLKPEDTAVYYCAAKKVNSRSHVKYYYWGQGTQVTVSS | high polyreactivity
2 | QVQLLESGGGLVQAGGSLRLSCAASGTSAQEDWMGWYRQAPGKEREFVAAIGLGSHTNYADSLKGRFTISRDNAKNTVYLHMNSLKPEDTAVYYCAVSVWQYSDHVYRGQGTQVTVSS | low polyreactivity
3 | QVQLLESGGGLVQAGGSLRLSCAAYGFIFVSNGMGWYRQAPGKEREFVASITSIGGSTYYADSVKGRFTISRDNAKNTVYLQMNSLKPEDTAVYYCAARDIALNAVGRPKEYNRDYWGQGTQVTVSS | low polyreactivity
4 | QVQLLESGGGLVQAGGSLRLSCASSGRTFRQYVMVWYRQAPGKESELVAAITYSGGSTYFADSVKGRFTISRDNAKYSVYLQMNSLTPEDTAVYYCAARNGYCVGYWGQGTQVTVSS | high polyreactivity
5 | QVQLLESGGGLVQAGGSLRLSCASSGSIFHTYAMGWYRPAPGKERELVAAISSGGRTYYADSVKGRFTISRDNAKNTVYLQMNSLKPEDTAVYYCAVRPRPGYYYWGQGTQVTVSS | high polyreactivity
6 | QVQLLESGGGLVQAGRSLRLSCAASGRTFRIYAMGWYRQAPGKEREEVAAITRSSGSTFYADSVKGRFTISRDNAKNTVYLQMNSLKPEDTAVYYCAAEYFEWWVTYDYWGQGTQVTVSS | high polyreactivity
7 | QVQLLESGGGLVQAGVSLRLRCAPSGGTHKYYTMALYRQAPGKERELDATIRWYGDSTSYADSVKGRFTISRDNAKNTVYLQMNSQNPEDTAVYSCNADYAWYQRKSTVEYDYWVQGTQVTVSS | low polyreactivity
8 | QVQLLESGGRLVQAGGSLRLSCAASGFTFGVNAMGWYRQAPGKERELVAAITSRGGSTYYADSVKGRFTISRDNAKNTVYLQMNSLKPEDTAVYYCAALGRGYFYGYRYDHWGQGTQVSVSS | high polyreactivity
9 | QVQLLESGVGLVQAGGSLRLSSAASGRNFQQNAMAWYRQAPGKERELVAAINSRGGRTYYADSVKGRFTISRDNAKNTVYLQMNSLKPEDTAVYYCGAYFRNYRSYYYWGQGTQVTVSS | high polyreactivity
10 | QVQLLESRGGLVQAGGSLRLSCAASGSIFYIYAIGWYRQAPGKEREFVAAIRQSDGRTYYADSVKGRFTISRDNAKNTVYLQRTSLNPEDTAVYYCAAQYPVNYIWGYNDWGQGTQVTVSS | high polyreactivity
11 | QVQLLESVGGLVQAGGSLRISCAASGIIFKSYAMGWYRQAPGKERELVAAISSGGSTYYVDSVKGRFTISRDNAKNTVYLQMNSLKPEDTAVYYCAAYGKYQGYGHWGQGTQVTVSS | high polyreactivity
12 | QVQLLESVGGLVQAGGSLRLSSMASGSILGDRMSWYRHAPGKEHELVATIYDGGITYYADSMKGRFTISRDNAKNTVYLQMNSLRPEDSAVYYCGASFEGYRYHVYCGQGTQVTVSS | low polyreactivity
13 | QVQLLETCGGLVHAGCTLRLSCAPSRSTFRYNDMGRYRQAPGKERELDASISWSGGDTYYADSVKGRFTISRDNAKNTVYLQMNSLKPEDTAVYYCDKGNIWISRLMDDWGQGTQVTVSS | low polyreactivity
14 | QVQLLETGGGLVQAGGSLRLSCAASGIPFDIYTMGWYIQAPGKERELVAASSYSGGTTYYADSVKGRFTISRDNAKNTVYLQMISLKPEDTAVYYCAAYEGTYFTEVDYWGQGTQVTVSS | low polyreactivity
15 | QVQLLETGGGLVQAGGSLRLSCAASGSTFTIYAMGLYRQAPGKEMELVAVITRGSTNYADSVKGRFTISRDNAKNTVYLQMYSLKPEDSAVYYCNARRYGKVVRSRYNYWGQGTQVTVSS | high polyreactivity
16 | QVQLQDSGGGLVQAGGSLRLICAASVTIFSYSDLGWYRQAPGKERKFVAGIGFGSNSNFADSVRGRFTISRDNAKNTVYLQMNSLKPEDTAVYYCAAVWFDYSTHRYWGQGTKVTVSS | high polyreactivity

Row | Sequence | polyreactivity (PSR sort gate)
17 | QVQLQDSGGVMVLACGSLRLSCAESGYISWSFTMGWYRKAPGKEREFVAGITYGGITYYADSVKGRFTISRDNAKNSVYLQMNRLKPEDTAVYYCAAPQSYPYVYVYWGHGTQVTVSS | high polyreactivity
18 | QVQLQEGGGLVQAGGSLRLSCPASGYISSRPAMGCYRQAPGKERAFVATIADGTSTYYADSVKCRFTISRDNAKNTVYLQMNSLKPEDTEVYYCAAAYNTEFYLSYWGQGTQVTVSS | high polyreactivity
19 | QVQLQERGGALVQAGGSLRLICAATGNITVTGFMGWYRQSPGKERELVASIAIGGTTYYADSVKGRFSISRDNAKNTVYLQRNSLKQEDTAVSYGAARYLYYAYSYWGQGTQVTVSS | low polyreactivity
20 | QVQLQERGGGLVQAGGDLRLSCAASGNIFRDYIMGWYRQAPGKEREFVAGIDRGANTNYADSVKGRFTISRDNAKNTVYLQMNSLKPEDTAVYYCAVHTAIVPDFIYWGQGTQVTVSS | low polyreactivity
21 | QVQLQERGGGLVQAGGRLRLSCMASGSILGDRMSWYRQAPGKEHELVATIYDGGITYYADSMKVRFTISRDNANNTVDLQMKSQRPEDTAVYFCGASFEGYRYHVFCGQGTQVTVSS | low polyreactivity
22 | QVQLQERGGGLVQAGGTLRLSCAASGSFSADEDMGWYRQAQGKEREFVAGISVGGNTNYADSVKGRFTISRENAKNTVYLQINSLKPEDTAVYYCAVLQDVYDALDYWAQGTQVTVSS | high polyreactivity
23 | QVQLQERGGGLVQARGSLRLSCAASGNISYRTNMGWYRPAPGKERELVASIGGGTTNYADSVKGRFTISRDNAKKTVYLQMNSLKPVDTAVYYCAVVGTTQFRHRYWGQGTQVTASS | high polyreactivity
24 | QVQLQERGGRLVQAGGSLRLSCAASGSIFTQATMGCDRQAPGKERELVAAINFGSSTYYADSVKGRFTISRDNAKSTVYLQMNSLKPEDTAVYYCAVRALWYDFHDYWGQGTQVTVSS | high polyreactivity
25 | QVQLQERGSGLVQAGGSLRLTCAESGAIFPAYLMGWYRQPPGKERELVAGISYGSITYCADSVKGRFNIIRDNAKNTVYLQMNSLKPEDTAVKYCAVWRPGGDEYYYWGQGTQVTVSS | low polyreactivity
26 | QVQLQERSGGLVQAGGSLRLSCAASGYIFNNVNMGWYSQSPGKEREFVAAVGSGSSTNYADSVKGRFTISRDNTKNTGYLHMNSLKPEDTAVYYCNAVRRTGGHGDYWGLGTQVTVSS | high polyreactivity
27 | QVQLQESAGGLVQAGGSLRLRCSASGYISCDASKGWYRQAPGKERELAASITKGSSTNYADSVKGRFTIRDNAKNSVNLQMNSLKPEDTAVCYCAVTYPYWGDYTYWGQGTQVTVSS | low polyreactivity
28 | QVQLQESCGRLVQAGGILRLSCAACGNIFPSAVMGWYRQALGTEREFVATLNSGSNPYYADSVKGRFTISRDNAKNTVYLQLNSLKLEDTAVYYCAAYYKLPAWHTYWGQGTQVTVSS | low polyreactivity
29 | QVQLQESDGGLVQAGGSLRLICAASGSISPQYYMGWYRQAPGKEREFVAISKGTTTYYADSVKGRLTISRVNAKNTVYLQMNSLKPEDTAVYCCAAGRWLQKVHAYWDQGTQVTVSS | low polyreactivity
30 | QVQLQESDGGLVQAGGSLRLSCAASGSISPQYYMGWYRQAPGKEREFVAISKGTTTYYADSVKGRLTISRVNAKNTVYLQMNSLKPEDTAVYCCAAGRWLQNVHAYWDQGTQVTVSS | low polyreactivity
31 | QVQLQESFVGLVQAGGSLRLICAASGNIFPTDRMGWYRQAPGKELEFVATISHGGSTNYADSVKGRFTISRDNAKHTVYLQMNSLKPEDTAVYYCAVWSLGRWRNYYWGQGTQVTVIS | low polyreactivity
32 | QVQLQESGCGLVQAGGSLRLSCAASGYISSWYPMGWYRQAPGKEREFVATIAPGATTYYADSVKGRFTISRDYSINTVYLQMNSLKPEDTAVYYCAAGPENNDFYSYWGQGTQVTVSS | low polyreactivity
